Source: article PMC6107515
Like-named read-outs stand apart in the source and are kept apart here.

Tests used:
[1] = molecular target: human complement Factor H (human) (UniProt P08603); test: SPR; Biacore X100; FH coupled to a CM4 chip, recombinant PspCs injected at five increasing concentrations (kinetic titration); PBS-P+ buffer; fitted with a 1:1 binding model
[2] = molecular target: human complement Factor H (human) (UniProt P08603); test: as above; remark: listed apart in the source

Sequence of human complement Factor H (human) (P08603 19-1231): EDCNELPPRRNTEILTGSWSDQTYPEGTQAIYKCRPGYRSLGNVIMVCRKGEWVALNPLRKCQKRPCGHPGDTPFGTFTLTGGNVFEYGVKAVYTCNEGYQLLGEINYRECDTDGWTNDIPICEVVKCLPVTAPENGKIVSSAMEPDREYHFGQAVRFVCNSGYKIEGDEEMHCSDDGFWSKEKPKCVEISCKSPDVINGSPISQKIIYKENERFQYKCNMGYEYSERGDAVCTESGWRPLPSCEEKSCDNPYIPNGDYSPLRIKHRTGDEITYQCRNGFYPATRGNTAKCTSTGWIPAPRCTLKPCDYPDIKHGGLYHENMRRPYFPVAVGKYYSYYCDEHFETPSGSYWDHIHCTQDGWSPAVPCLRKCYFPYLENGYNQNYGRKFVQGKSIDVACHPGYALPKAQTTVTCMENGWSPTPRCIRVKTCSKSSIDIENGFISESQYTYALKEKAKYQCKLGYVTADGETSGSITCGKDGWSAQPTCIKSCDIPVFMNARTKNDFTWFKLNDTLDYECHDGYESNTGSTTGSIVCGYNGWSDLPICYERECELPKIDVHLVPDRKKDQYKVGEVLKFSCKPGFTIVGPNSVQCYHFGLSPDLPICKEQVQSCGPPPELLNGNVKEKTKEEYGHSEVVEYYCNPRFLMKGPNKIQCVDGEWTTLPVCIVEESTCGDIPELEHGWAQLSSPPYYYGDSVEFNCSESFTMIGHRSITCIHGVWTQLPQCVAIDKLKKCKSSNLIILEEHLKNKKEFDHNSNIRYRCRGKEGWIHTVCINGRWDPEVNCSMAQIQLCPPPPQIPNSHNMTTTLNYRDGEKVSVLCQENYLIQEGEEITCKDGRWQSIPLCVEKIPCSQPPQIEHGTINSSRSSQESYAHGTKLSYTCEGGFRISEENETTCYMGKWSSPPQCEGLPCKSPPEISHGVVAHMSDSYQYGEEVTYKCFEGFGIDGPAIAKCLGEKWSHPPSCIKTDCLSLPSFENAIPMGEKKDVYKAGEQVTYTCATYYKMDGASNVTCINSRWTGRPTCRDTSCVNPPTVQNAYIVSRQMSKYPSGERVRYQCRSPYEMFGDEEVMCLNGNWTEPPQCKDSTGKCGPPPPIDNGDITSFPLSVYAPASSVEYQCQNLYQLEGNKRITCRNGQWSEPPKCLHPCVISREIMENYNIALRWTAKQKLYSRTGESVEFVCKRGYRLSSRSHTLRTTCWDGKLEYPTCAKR

recombinant PspC (D39) (domain or fragment)
Kd [1]: 0.0885 nM
Kd [2]: 0.086 nM
koff [2]: 4.3e-05 s⁻¹
kon [2]: 480000 M⁻¹ s⁻¹
